B1: human DJ-1 (other, UniProt Q99497 1-189, looked up)
chain: MASKRALVILAKGAEEMETVIPVDVMRRAGIKVTVAGLAGKDPVQCSRDVVICPDASLEDAKKEGPYDVVVLPGGNLGAQNLSESAAVKEILKEQENRKGLIAAICAGPTALLAHEIGFGSKVTTHPLAKDKMMNGGHYTYSENRVEKDGLILTSRGPGTSFEFALAIVEALNGKEVAAQVKAPLVLKD
notes: also called PARK7
B2: human CBR3 (recombinant, His tag removed) (enzyme, UniProt O75828 1-277, looked up)
chain: MSSCSRVALVTGANRGIGLAIARELCRQFSGDVVLTARDVARGQAAVQQLQAEGLSPRFHQLDIDDLQSIRALRDFLRKEYGGLNVLVNNAAVAFKSDDPMPFDIKAEMTLKTNFFATRNMCNELLPIMKPHGRVVNISSLQCLRAFENCSEDLQERFHSETLTEGDLVDLMKKFVEDTKNEVHEREGWPNSPYGVSKLGVTVLSRILARRLDEKRKADRILVNACCPGPVKTDMDGKDSIRTVEEGAETPVYLALLPPDATEPQGQLVHDKVVQNW
B3: human PGDH with a C-terminal 6His tag (enzyme)
chain: MHVNGKVALVTGAAQGIGRAFAEALLLKGAKVALVDWNLEAGVQCKAALDEQFEPQKTLFIQCDVADQQQLRDTFRKVVDHFGRLDILVNNAGVNNEKNWEKTLQINLVSVISGTYLGLDYMSKQNGGEGGIIINMSSLAGLMPVAQQPVYCASKHGIVGFTRSAALAANLMNSGVRLNAICPGFVNTAILESIEKEENMGQYIEYKDHIKDMIKYYGILDPPLIANGLITLIEDDALNGAIMKITTSKGIHFQDYDTTPFQAKTQ
notes: also called PGDH-His; not shown: C-terminal 6His tag

Legend:
[1] = molecular target: T1, T. acidophilum (Archaea) 20S proteasome (T. acidophilum, UniProt P25156 1-233; P28061 9-211); test: native MS with MS/MS of the isolated 20S proteasome peak
T1 construct: Assembled in vitro as α7β7β7α7; also called archaeal 20S proteasome; 20S proteasome from T. acidophilum
Procedure: Nanoflow electrospray ionization MS and tandem MS experiments were conducted under non-denaturing conditions on a QToF Q-Star Elite instrument (MDS Sciex, Canada), modified for improved transmission of large non-covalent complexes, or an Q-Exactive Plus Orbitrap EMR (ThermoFisher Scientific). Before MS analysis, 20 μl of up to 100 mM sample was buffer exchanged into 0.5-1 M ammonium acetate pH 7.5, using Bio-Spin columns (Bio-Rad). Sample concentrations were determined by ultraviolet absorbance. Assays were performed in positive ion mode and conditions were optimized to enable the ionization and removal of adducts, without disrupting the non-covalent interactions of the proteins tested. In tandem MS experiments, the relevant m/z values were isolated and argon gas was admitted to the collision cell. […] The following experimental parameters were used on the QToF Q-Star Elite instrument: capillary voltage up to 1.1 kV, declustering potential up to 220 V, focusing potential up to 240 V, a second declustering potential of 15 V, collision energy of between 20 and 200 V and an MCP of 2,350 V. The following experimental conditions were used on the Q-Exactive Plus Orbitrap EMR: capillary voltage 1.7 kV, MS spectra were recorded at low resolution (5000), and the HCD cell voltage was set to 20-50 V, at trapping gas pressure setting of 3.9.

α-synuclein = α-synuclein (UniProt P37840 1-140); test: native mass spectrometry of α-synuclein incubated with the CCR
Procedure: Nanoflow electrospray ionization MS and tandem MS experiments were conducted under non-denaturing conditions on a QToF Q-Star Elite instrument (MDS Sciex, Canada), modified for improved transmission of large non-covalent complexes, or an Q-Exactive Plus Orbitrap EMR (ThermoFisher Scientific). Before MS analysis, 20 μl of up to 100 mM sample was buffer exchanged into 0.5-1 M ammonium acetate pH 7.5, using Bio-Spin columns (Bio-Rad). Sample concentrations were determined by ultraviolet absorbance. Assays were performed in positive ion mode and conditions were optimized to enable the ionization and removal of adducts, without disrupting the non-covalent interactions of the proteins tested. In tandem MS experiments, the relevant m/z values were isolated and argon gas was admitted to the collision cell. […] The following experimental parameters were used on the QToF Q-Star Elite instrument: capillary voltage up to 1.1 kV, declustering potential up to 220 V, focusing potential up to 240 V, a second declustering potential of 15 V, collision energy of between 20 and 200 V and an MCP of 2,350 V. The following experimental conditions were used on the Q-Exactive Plus Orbitrap EMR: capillary voltage 1.7 kV, MS spectra were recorded at low resolution (5000), and the HCD cell voltage was set to 20-50 V, at trapping gas pressure setting of 3.9. […]

[2] = molecular target: T1, T. acidophilum (Archaea) 20S proteasome; test: peptide array of overlapping T. acidophilum 20S proteasome peptides

T1 sequence (P25156 whole entry, chain 1 of 2): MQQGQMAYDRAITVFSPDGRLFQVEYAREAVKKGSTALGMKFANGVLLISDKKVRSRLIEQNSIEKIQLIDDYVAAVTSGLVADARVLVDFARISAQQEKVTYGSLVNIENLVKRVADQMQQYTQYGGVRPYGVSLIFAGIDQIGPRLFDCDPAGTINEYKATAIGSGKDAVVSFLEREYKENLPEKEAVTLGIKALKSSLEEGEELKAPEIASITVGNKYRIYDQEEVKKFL
T1 sequence (P28061 9-211, chain 2 of 2): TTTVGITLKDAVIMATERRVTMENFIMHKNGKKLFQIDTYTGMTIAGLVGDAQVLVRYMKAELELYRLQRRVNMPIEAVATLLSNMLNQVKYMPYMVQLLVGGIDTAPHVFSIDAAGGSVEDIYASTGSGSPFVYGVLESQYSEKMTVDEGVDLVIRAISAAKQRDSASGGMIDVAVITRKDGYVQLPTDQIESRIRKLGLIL

Row | Binder | binding result [1] | binding result (α-synuclein) | binding result [2]
1 | B1 | binds |  | 
2 | B2 |  | no binding | binds
3 | B3 |  | no binding | 
